In patent US20160136262A1:

How the values were obtained:
[1] = target: T1, H1-mini2-cluster1+5+6-GCN4 without leader sequence and with FLAG-thrombin-foldon-HIS; assay: ELISA/HTRF, HEK293F; average; details: remark: other sources report otherwise
[2] = target: T1, H1-mini2-cluster1+5+6-GCN4 without …; assay: ELISA/HTRF, P. pastoris; average; details: remark: other sources report otherwise

B1: CR6261 (antibody, V domains shown)
VH: EVQLVESGAEVKKPGSSVKVSCKASGGPFRSYAISWVRQAPGQGPEWMGGIIPIFGTTKYAPKFQGRVTITADDFAGTVYMELSSLRSEDTAMYYCAKHMGYQVRETMDVWGKGTTVTVSS
VL: QSVLTQPPSVSAAPGQKVTISCSGSSSNIGNDYVSWYQQLPGTAPKLLIYDNNKRPSGIPDRFSGSKSGTSATLGITGLQTGDEANYYCATWDRRPTAYVVFGGGTKLTVLG
What does the source list for B1?
fold increase of ratio over parental SEQ ID NO: 6 [1]: 1 fold; ratio binding signal/HTRF signal [1]: 17.4; fold increase of ratio over parental SEQ ID NO: 6 [2]: 1 fold; ratio binding signal/HTRF signal [2]: 5.94
